Laboratory results as given in patent US10005829B2, “Synthetic linear apelin mimetics for the treatment of heart failure” (priority 2012, dated 2018).
Where a SMILES comes first, the peptide text is derived from it. [ ]: non-standard residue; d: D form. The star is where a group is joined. Pro(trans-4-Ph) = O=C(O)[C@@H]1C[C@@H](c2ccccc2)CN1; Cha = N[C@@H](CC1CCCCC1)C(=O)O; pGlu = O=C1CC[C@@H](C(=O)O)N1; dNle = CCCC[C@@H](N)C(=O)O; dNva = CCC[C@@H](N)C(=O)O; Bn = c1ccc(C*)cc1

What was measured:
[1] = Surrogate activity-based plasma stability assay; assay type: in vitro ADME; details: 5% rat plasma, 37° C., EC50 at t0 and t24 hrs; Table 2
Description: • Stability assay: stability half-life, (t ½), values were determined by converting peak areas at each time point to percent remaining relative to initial (t=0) peak area. Percent remaining=100×(sample peak area)÷(t=0 peak area) • The natural log of percent remaining values were calculated and plotted against sample time (Microsoft Excel). The slope of this line, k, was determined by linear regression (Microsoft Excel). • Stability half-life was then calculated by the formula, t ½=0.693÷k Surrogate Activity-based Plasma Stability Assay:
The calcium flux protocol described above was followed, with the following changes. The peptides were also incubated with 5% rat plasma (Bioreclamation # [sequence]-M, Na Heparin-treated). Readings were taken at time points t0 and t24 hrs, after incubation in a 37° C. tissue culture incubator. Peptide plasma half-life in minutes was estimated by calculating the following:

APJ receptor = target: T1, APJ receptor (human, UniProt P35414 1-380); assay: cell-based or functional assay
T1 sequence (looked up): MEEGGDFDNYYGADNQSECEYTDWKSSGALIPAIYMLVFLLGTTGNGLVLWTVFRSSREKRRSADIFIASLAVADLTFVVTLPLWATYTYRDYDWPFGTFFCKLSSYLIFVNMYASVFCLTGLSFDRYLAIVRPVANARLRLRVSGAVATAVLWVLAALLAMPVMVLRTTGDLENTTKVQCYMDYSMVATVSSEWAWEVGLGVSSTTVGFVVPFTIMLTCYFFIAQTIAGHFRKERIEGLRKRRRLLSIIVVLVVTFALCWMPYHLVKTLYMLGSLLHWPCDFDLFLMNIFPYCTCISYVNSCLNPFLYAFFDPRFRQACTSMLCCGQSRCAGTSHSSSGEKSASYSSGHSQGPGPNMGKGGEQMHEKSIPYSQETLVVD

Molecule	Surrogate activity-based Plasma stability t½ [1] [h]	hAPJ Ca^2+ Flux EC50 (APJ receptor) [nM]
CCCC[C@@H](NC(=O)[C@@H]1CCCN1C(=O)CNC(=O)[C@H](CCCCN)NC(=O)[C@H](Cc1c[nH]cn1)NC(=O)[C@@H](C)NC(=O)[C@H](Cc1ccc(OCc2ccccc2)cc1)NC(=O)[C@H](CCCNC(=N)N)NC(=O)[C@@H]1CCCN1C(=O)[C@H](CCCNC(=N)N)NC(=O)[C@@H]1CCC(=O)N1)C(=O)N[C@H](C)C(=O)N[C@H](Cc1ccccc1)C(=O)O [Example 27, pE-R-P-R-Y(Bzl)-a-H-K-G-P-nle-a-f-OH] ([pGlu]RPRY(Bn)[dA]HKGP[dNle][dA][dF]-OH)	5.815	–
[pGlu]RPRL[dA]HKGP[dNle][dNva][dF]-OH (SMILES CCCC[C@@H](NC(=O)[C@@H]1CCCN1C(=O)CNC(=O)[C@H](CCCCN)NC(=O)[C@H](Cc1c[nH]cn1)NC(=O)[C@@H](C)NC(=O)[C@H](CC(C)C)NC(=O)[C@H](CCCNC(=N)N)NC(=O)[C@@H]1CCCN1C(=O)[C@H](CCCNC(=N)N)NC(=O)[C@@H]1CCC(=O)N1)C(=O)N[C@H](CCC)C(=O)N[C@H](Cc1ccccc1)C(=O)O) [pE-R-P-R-L-a-H-K-G-P-nle-nva-f-OH]	–	0.9
[pGlu]RPRLS[dF]KGP[dNle][dA][dF]-OH (SMILES CCCC[C@@H](NC(=O)[C@@H]1CCCN1C(=O)CNC(=O)[C@H](CCCCN)NC(=O)[C@@H](Cc1ccccc1)NC(=O)[C@H](CO)NC(=O)[C@H](CC(C)C)NC(=O)[C@H](CCCNC(=N)N)NC(=O)[C@@H]1CCCN1C(=O)[C@H](CCCNC(=N)N)NC(=O)[C@@H]1CCC(=O)N1)C(=O)N[C@H](C)C(=O)N[C@H](Cc1ccccc1)C(=O)O) [pE-R-P-R-L-S-f-K-G-P-nle-a-f-OH]	–	72.8
[pGlu]RPRLS[dH]KGP[dNle][dA][dF]-OH (SMILES CCCC[C@@H](NC(=O)[C@@H]1CCCN1C(=O)CNC(=O)[C@H](CCCCN)NC(=O)[C@@H](Cc1c[nH]cn1)NC(=O)[C@H](CO)NC(=O)[C@H](CC(C)C)NC(=O)[C@H](CCCNC(=N)N)NC(=O)[C@@H]1CCCN1C(=O)[C@H](CCCNC(=N)N)NC(=O)[C@@H]1CCC(=O)N1)C(=O)N[C@H](C)C(=O)N[C@H](Cc1ccccc1)C(=O)O) [pE-R-P-R-L-S-h-K-G-P-nle-a-f-OH]	–	6.8
[pGlu]RPRL[dA]HKGP[dF][dA][dF]-OH (SMILES CC(C)C[C@H](NC(=O)[C@H](CCCNC(=N)N)NC(=O)[C@@H]1CCCN1C(=O)[C@H](CCCNC(=N)N)NC(=O)[C@@H]1CCC(=O)N1)C(=O)N[C@H](C)C(=O)N[C@@H](Cc1c[nH]cn1)C(=O)N[C@@H](CCCCN)C(=O)NCC(=O)N1CCC[C@H]1C(=O)N[C@H](Cc1ccccc1)C(=O)N[C@H](C)C(=O)N[C@H](Cc1ccccc1)C(=O)O) [pE-R-P-R-L-a-H-K-G-P-f-a-f-OH]	–	1.5
[pGlu]RPRLA[dH]KGP[dNle][dA][dF]-OH [pE-R-P-R-L-A-h-K-G-P-nle-a-f-OH]	–	55.1
[pGlu]RPRL[dA]HQGP[dNle][dA][dF]-OH (SMILES CCCC[C@@H](NC(=O)[C@@H]1CCCN1C(=O)CNC(=O)[C@H](CCC(N)=O)NC(=O)[C@H](Cc1c[nH]cn1)NC(=O)[C@@H](C)NC(=O)[C@H](CC(C)C)NC(=O)[C@H](CCCNC(=N)N)NC(=O)[C@@H]1CCCN1C(=O)[C@H](CCCNC(=N)N)NC(=O)[C@@H]1CCC(=O)N1)C(=O)N[C@H](C)C(=O)N[C@H](Cc1ccccc1)C(=O)O) [pE-R-P-R-L-a-H-Q-G-P-nle-a-f-OH]	–	7.4
ERPRLAHKGPLF (pE at 1; D-Ala at 6; D-Nle at 11; D-Phe at 12) [pE-R-P-R-L-a-H-K-G-P-nle-f-OH]	–	3.1
[pGlu]RPRL[dA]HEGP[dNle][dA][dF]-OH (SMILES CCCC[C@@H](NC(=O)[C@@H]1CCCN1C(=O)CNC(=O)[C@H](CCC(=O)O)NC(=O)[C@H](Cc1c[nH]cn1)NC(=O)[C@@H](C)NC(=O)[C@H](CC(C)C)NC(=O)[C@H](CCCNC(=N)N)NC(=O)[C@@H]1CCCN1C(=O)[C@H](CCCNC(=N)N)NC(=O)[C@@H]1CCC(=O)N1)C(=O)N[C@H](C)C(=O)N[C@H](Cc1ccccc1)C(=O)O) [pE-R-P-R-L-a-H-E-G-P-nle-a-f-OH]	–	200
[pGlu]RPRL[dV]HKGP[dNle][dA][dF]-OH (SMILES CCCC[C@@H](NC(=O)[C@@H]1CCCN1C(=O)CNC(=O)[C@H](CCCCN)NC(=O)[C@H](Cc1c[nH]cn1)NC(=O)[C@H](NC(=O)[C@H](CC(C)C)NC(=O)[C@H](CCCNC(=N)N)NC(=O)[C@@H]1CCCN1C(=O)[C@H](CCCNC(=N)N)NC(=O)[C@@H]1CCC(=O)N1)C(C)C)C(=O)N[C@H](C)C(=O)N[C@H](Cc1ccccc1)C(=O)O) [pE-R-P-R-L-v-H-K-G-P-nle-a-f-OH]	–	7.9
[pGlu]RPRL[dA]HKDP[dNle][dA][dF]-OH (SMILES CCCC[C@@H](NC(=O)[C@@H]1CCCN1C(=O)[C@H](CC(=O)O)NC(=O)[C@H](CCCCN)NC(=O)[C@H](Cc1c[nH]cn1)NC(=O)[C@@H](C)NC(=O)[C@H](CC(C)C)NC(=O)[C@H](CCCNC(=N)N)NC(=O)[C@@H]1CCCN1C(=O)[C@H](CCCNC(=N)N)NC(=O)[C@@H]1CCC(=O)N1)C(=O)N[C@H](C)C(=O)N[C@H](Cc1ccccc1)C(=O)O) [pE-R-P-R-L-a-H-K-D-P-nle-a-f-OH]	–	95.9
[pGlu]RPR[Cha][dNva]HKGP[dNle][dA][dF]-OH (SMILES CCCC[C@@H](NC(=O)[C@@H]1CCCN1C(=O)CNC(=O)[C@H](CCCCN)NC(=O)[C@H](Cc1c[nH]cn1)NC(=O)[C@@H](CCC)NC(=O)[C@H](CC1CCCCC1)NC(=O)[C@H](CCCNC(=N)N)NC(=O)[C@@H]1CCCN1C(=O)[C@H](CCCNC(=N)N)NC(=O)[C@@H]1CCC(=O)N1)C(=O)N[C@H](C)C(=O)N[C@H](Cc1ccccc1)C(=O)O) [pE-R-P-R-Cha-nva-H-K-G-P-nle-a-f-OH]	–	9.4
[pGlu]RPRL[dCys(tBu)]HKGP[dNle][dA][dF]-OH [pE-R-P-R-L-c(tBu)-H-K-G-P-nle-a-f-OH]	–	693
[pGlu]RPRL[dD]HKGP[dNle][dA][dF]-OH (SMILES CCCC[C@@H](NC(=O)[C@@H]1CCCN1C(=O)CNC(=O)[C@H](CCCCN)NC(=O)[C@H](Cc1c[nH]cn1)NC(=O)[C@@H](CC(=O)O)NC(=O)[C@H](CC(C)C)NC(=O)[C@H](CCCNC(=N)N)NC(=O)[C@@H]1CCCN1C(=O)[C@H](CCCNC(=N)N)NC(=O)[C@@H]1CCC(=O)N1)C(=O)N[C@H](C)C(=O)N[C@H](Cc1ccccc1)C(=O)O) [pE-R-P-R-L-d-H-K-G-P-nle-a-f-OH]	–	7.7
[pGlu]R[Pro(trans-4-Ph)]RL[dA]HKGP[dNle][dA][dF]-OH [pE-R-(trans-4-PhP)-R-L-a-H-K-G-P-nle-a-f-OH]	–	9.9
